pKa, koff and kon data for two molecules are collected here from paper PMC3121799, “Mechanism of Heparin Acceleration of Tissue Inhibitor of Metalloproteases-1 (TIMP-1) Degradation by the Human Neutrophil Elastase” (PLoS ONE, 2011).

Square brackets hold non-standard residues; d marks the D form. Ends that are not written are not given here. * marks the point of attachment. EDDnp = O=[N+]([O-])c1ccc(NCCN*)c([N+](=O)[O-])c1; 2Abz = Nc1ccccc1C(=O)O

One data set addresses His57 (UniProt position 70, VMSAAHCVANV). As to the kind of experiment: kinetics. Conditions: 37 °C, Constant ionic strength buffer system containing 140 mM NaCl, 25 mM glycine, 25 mM acetic acid, 25 mM Mes, 75 mM Tris, 0.05% (v/v) Triton X-100, pH adjusted with HCl or NaOH.
For the next data set, the system named is Nterm16. As to the kind of experiment: kinetics. Conditions: 37 °C, Constant ionic strength buffer system containing 140 mM NaCl, 25 mM glycine, 25 mM acetic acid, 25 mM Mes, 75 mM Tris, 0.05% (v/v) Triton X-100, pH adjusted with HCl or NaOH.
For data set [1], the target named is T1, Human neutrophil elastase (human, UniProt P08246 30-267). As to the kind of experiment: stopped-flow fluorescence kinetics of substrate hydrolysis (pre-steady-state, fit to a three-step mechanism with DynaFit IV); both in solution; 3.8 µM FRET-peptide, 12.6 nM HNE, 25°C, 10 mM Tris-HCl pH 7.4, 100 mM NaCl, no heparin. Conditions: both partners purified.
T1 sequence (P08246 30-267): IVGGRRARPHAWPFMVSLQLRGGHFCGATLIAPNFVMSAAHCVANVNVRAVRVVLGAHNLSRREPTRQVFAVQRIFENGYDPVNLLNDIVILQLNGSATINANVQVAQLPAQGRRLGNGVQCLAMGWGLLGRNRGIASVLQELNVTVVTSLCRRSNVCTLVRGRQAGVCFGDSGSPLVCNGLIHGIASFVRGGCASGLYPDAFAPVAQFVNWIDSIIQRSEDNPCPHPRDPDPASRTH
In data set [2] the target is T1, Human neutrophil elastase. As to the kind of experiment: stopped-flow fluorescence kinetics of substrate hydrolysis (pre-steady-state, fit to a three-step mechanism with DynaFit IV); both in solution; 3.8 µM FRET-peptide, 12.6 nM HNE (12.7 nM in the methods), 25°C, 10 mM Tris-HCl pH 7.4, 100 mM NaCl, with 50 µM heparin. Conditions: both partners purified.
Setting [3] is: Free enzyme, no heparin (control).
Where [4] appears, read: Heparin-bound enzyme (50 µM 14 kDa heparin).

For orientation: pKa means the negative logarithm of the acid dissociation constant. A high value points to a group that holds its proton tightly. “Human neutrophil elastase (HNE; leukocyte elastase, EC 3.4.21.37) (Homo sapiens)”: the pKa with His57 (setting [3]) was 6.71±0.05; with His57 (setting [4]), 7.04±0.07; in the data set with Nterm16 (setting [3]), 8.93±0.05; in the data set with Nterm16 (setting [4]), 9.60±0.07.

B1: FRET-peptide Abz-AMESVMGYFHRSQ-EDDnp (peptide)
peptide: [2Abz]AMESVMGYFHRSQ-EDDnp
notes: the peptide has Met where TIMP-1 has Cys70 (cleaved bond Val-Met); also called FRET-peptide substrate; FRET substrate; source: synthetic peptide (solid phase, Fmoc; HPLC purified)
As a reminder, the koff is a measure of how fast the partners let go of each other. Read a low koff as a long-lived complex. For orientation: kon means a measure of how fast the partners come together. A high value points to fast association. In data set [1], B1 yielded a koff of 0.25 s⁻¹ and a kon of 350000 M⁻¹ s⁻¹. In data set [2], this molecule came in with a koff of 0.081 s⁻¹ and a kon of 820000 M⁻¹ s⁻¹.
